According to US20140255414A1 (PROBIODRUG, published 2014):
Square brackets hold non-standard residues; d marks the D form. pGlu = O=C1CC[C@@H](C(=O)O)N1; PEG = not defined here

Assays:
Aβ(pE11-18)-PEG peptide = biological target: T1, Aβ(pE11-18)-PEG peptide (reading uncertain); test: ITC at 20 °C, peptide titrated into biotinylated antibody
T1 construct: The PEG attachment is not described further
T1 peptide: [pGlu]VHHQKLV-{PEG}
Procedure: 1.3.4.1 Determination of Thermodynamic Parameters With ITC, the thermodynamic parameters of the binding of anti Aβ11(pE) antibody from clone 13 at antigen Aβ11(pE) was determined. For the ITC experiment, the peptide Aβ(pE11-18)-PEG was used because the hydrophilic PEG group imparts hydrophilic properties and so it was possible to dissolve the peptide directly in ITC buffer. Former experiments with Aβ(pE11-20) could only be performed with 1-2% DMSO, due to the strong hydrophobicity of the peptide it was necessary to dissolve it with DMSO which could have an effect on the ITC binding properties. At first the antibody was dialyzed against ITC buffer (150 mM NaCl, 25 mM Na₂HPO₄, 25 mM KH₂PO₄, 1 mM EDTA, pH=7.1) over night at 4° C. The lyophilised peptide, stored at −20° C., was dissolved in identical ITC buffer pH=7.1 which was used for antibody dialysis. Both antibody and antigen must be in identical solutions, otherwise large heats of dilution will mask the desired observation. Before the ITC experiment, the concentration of antibody was determined by UV/VIS spectroscopy (see section 1.3.1). At first the antibody with e.g. 5.13 μM (see Table 4) was added into the sample cell and the reference cell was filled with distilled water. Then the antigen was injected into the sample cell with e.g. 81.78 μM (see Table 4). The antigen should be generally in twofold excess to the antibody, bearing in mind that an antibody has two binding sites the antigen was in the cell at least in fourfold excess to the antibody. The 30 injections (1×2 μl and 29×10 μl) were made with a 4-min interval between subsequent injections. The measurement of heat of reaction was performed at 20° C. Furthermore the heat of reaction was determined which was only generated by dilution of the antigen through the titration into ITC buffer (pH=7.1). Therefore the antigen was injected into the sample cell filled with ITC buffer. The heat of reaction which was generated during the titration of the antigen to the antibody was corrected about this value. The analysis of raw data and the determination of the association constant (KA), reaction stoichiometry (n), binding enthalpy (ΔH) and entropy (ΔS) was performed with Origin Software of MicroCal.

Aβ(pE11-30) peptide = biological target: T2, Aβ(pE11-30) peptide (N-terminal pyroglutamate (Aβ position 11)); test: direct ELISA: AβpE(11-30) coated at 0-500 ng/ml, 1 µg/ml biotinylated antibody pre-incubated with streptavidin-HRP, absorption 450/540 nm
T2 construct: Synthesized peptide; Amine-coupled to a CM5 chip for SPR, or adsorbed to the microplate for the direct ELISA
T2 peptide: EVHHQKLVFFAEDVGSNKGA
Procedure: AβpE(11-30) peptide with different concentrations was coated over night at 4° C. and then blocked with ELISA-Blocker (−T) 2 h at RT. Anti Aβ11(pE) antibody (clone 13) biotinylated was pre-incubated with streptavidin-HRP conjugate 10 min at RT and diluted in ELISA-Blocker (+T) were performed. Addition of 1 μg/ml antibody (clone 13). Wash cycles in-between incubations with 6×300 μl/well TBS-T buffer (except after peptide coating). TMB/H₂O₂ were added, incubated 30 min at RT (dark) and enzyme reaction was stopped with 1 M H₂SO₄. Absorption was measured at 450/540 nm at TECAN Sunrise.

B1: biotinylated monoclonal mouse anti Aβ11(pE) antibody (clone 13) (antibody, V domains shown)
VH: QVQLQQPGTELVKPGASVKLSCKASGFTFTSYWMHWVRQRPGQGLEWIGEINPSNGRTNYNEKFKSKATLTVDKSSSTAYMQLSSLTSEDSEVYYCARGDLAWDWSAYWGQGTLVTVSA
VL: DIVMSQSPSSLAVSAGEKVTMSCKSSQSLFYSRTRKNYLAWYQQKPGQSPKLLIYWASTRESGVPDRFTGSGSGTDFTLTISSVQAEDLAVYYCKQSYNLWSFGGGTKLEIKR
modifications: about 2 biotin molecules (NHS-PEO4-Biotin) coupled per antibody; sites not stated
notes: Mouse IgG; also called anti Aβ11(pE)-biotin antibody (clone 13); mAb mouse anti Aβ11(pE)-Biotin
Aβ(pE11-18)-PEG peptide
  -TΔS: -0.98 kcal/mol
  Ka: 8e+06 M⁻¹
  Kd: 125 nM
  Stoichiometry (N): 1.66
Aβ(pE11-30) peptide
  binding result: binds
